The text below walks through data of PMC6677818.

As a reminder, the Kd is the concentration at which binding is half-saturated. The term stoichiometry N denotes the number of molecules, sites or subunits per partner or assembly.

Experiment [1] has as its target calcineurin, WT CN (CNA_(1–370):CNB_(1–170)) (human) (UniProt Q08209). Kind of experiment: ITC; NHE1 or variants (30–50 µM, syringe) titrated into CN (5–10 µM, cell), 25 °C, 20 mM Tris–HCl pH 7.5, 100 mM NaCl, 1 mM CaCl2, 0.5 mM TCEP; single site-binding model. (ITC needs no label: the signal is the heat of the interaction.)
UniProt Q08209, sequence (Q08209 other isoform, or with tags, fused parts or gaps): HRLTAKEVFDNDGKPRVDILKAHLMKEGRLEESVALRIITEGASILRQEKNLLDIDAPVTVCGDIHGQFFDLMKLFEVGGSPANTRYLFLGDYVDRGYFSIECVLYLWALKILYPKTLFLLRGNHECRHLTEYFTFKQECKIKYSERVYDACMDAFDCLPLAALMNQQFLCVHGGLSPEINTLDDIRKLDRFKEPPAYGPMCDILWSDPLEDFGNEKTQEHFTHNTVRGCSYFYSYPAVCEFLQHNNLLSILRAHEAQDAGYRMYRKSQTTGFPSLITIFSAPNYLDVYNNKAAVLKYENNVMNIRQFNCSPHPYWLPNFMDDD
Experiment [2] has the same target.
In experiment [3] the target is CNAA variant (CNA: H155A/Y159A, CNB), crystallisation construct CNA M1-N370 H155A Y159A, CNB 16–170 (human) (UniProt Q08209).
Experiment [4] deals with CNA alone (alpha isoform: H27-D348; two C-terminal Asp residues added) (human) (UniProt Q08209).

Take “NHE1ct P782A (NHE1 I680-Q815) (from UniProt P19634 680-815) (domain or fragment)”: in experiment [1], the Kd worked out at 48 nM and the dH is -2.8 kcal/mol. The apparent in vitro dephosphorylation rate k (dephos) of pT779 of ERK2-phosphorylated NHE1ct variant by CN (NMR time course) in experiment [2] is 0.028 h^-1.

On to “NHE1ct WT (human NHE1 I680-Q815) (from UniProt P19634 680-815) (domain or fragment)”, for which, in experiment [1], the Kd worked out at 59 nM, the dH is -12 kcal/mol and the stoichiometry N came to 1. Moreover, the apparent in vitro dephosphorylation rate k (dephos) of pT779 of ERK2-phosphorylated NHE1ct by CNAA (NMR time course; 20:1 NHE1ct:CN, rate normalized using wt-NHE1ct) in experiment [3] turned out to be 0.06 h^-1. Also, in experiment [4], the apparent in vitro dephosphorylation rate k (dephos) of pT779 of ERK2-phosphorylated NHE1ct by CNA alone (NMR time course) came to 0.347 h^-1.

In the case of “NHE1ct_(ATAP) (NHE1 I680-Q815, L684A, V686A) (from UniProt P19634 680-815) (domain or fragment)”, in experiment [1], the Kd amounted to 4800 nM and the dH was -4.5 kcal/mol. The apparent in vitro dephosphorylation rate k (dephos) of pT779 of ERK2-phosphorylated NHE1ct variant by CN (NMR time course) in experiment [2] is 0.642 h^-1.

As for “NHE1ct_(ATAP/AVATAA) (NHE1 I680-Q815, L684A, V686A, P715A, I717A, I719A, D720A) (from UniProt P19634 680-815) (domain or fragment)”, in experiment [2], the apparent in vitro dephosphorylation rate k (dephos) of pT779 of ERK2-phosphorylated NHE1ct variant by CN (NMR time course) amounted to 0.811 h^-1.

For the substance “NHE1ct_(AVATAA) (NHE1 I680-Q815, P715A, I717A, I719A, D720A) (from UniProt P19634 680-815) (domain or fragment)”, in experiment [1], the Kd turned out to be 2400 nM and the dH is -7.6 kcal/mol. The apparent in vitro dephosphorylation rate k (dephos) of pT779 of ERK2-phosphorylated NHE1ct variant by CN (NMR time course) in experiment [2] was 0.011 h^-1.

For the substance “NHE1ct_(Δ92RARA) (NHE1ctΔ92 698AAA700; R698A, R700A) (from UniProt P19634 680-723) (domain or fragment)”, in experiment [1], the Kd was found to be 21 nM and the dH is -12.2 kcal/mol.

Take “NHE1ctΔ92 (NHE1 I680-S723) (from UniProt P19634 680-723) (domain or fragment)”: in experiment [1], the Kd stood at 21 nM and the dH is -8.5 kcal/mol.

Consider “NHE1ctΔ92 (PVIVIT) (from UniProt P19634 680-723) (domain or fragment)”, for which, in experiment [1], the Kd is 4 nM and the dH was -9 kcal/mol.

Regarding “PxIxIT peptide (NHE1 E709-P727) (from UniProt P19634 709-727)”, in experiment [1], the Kd is 6500 nM and the dH was -2.9 kcal/mol.
